{"source": "paper PMC3651167", "about": "(PLoS ONE, 2013)", "proteins": {"B1": {"name": "wild-type hamster PrP 121–231 (domain or fragment)", "chain": "not shown"}}, "target": "the molecule itself", "test": "SEC", "data": [{"protein": "B1", "values": [{"measurement": "stoichiometry N", "result": 8}]}]}
